We go through six molecules from paper PMC12216690, “MORC2 is a phosphorylation-dependent DNA compaction machine” (Nature Communications, 2024).

Series [1] concerns the molecule itself. Briefly: SEC-MALS; XBridge Protein BEH SEC column; 50 mM HEPES pH 8.0, 300 mM NaCl, 1 mM TCEP; 20 µl of protein at 1 mg/ml injected; no nucleotide. (In general: Size exclusion chromatography separates by hydrodynamic size, large species first.)
Series [2] concerns the molecule itself. The series can be described thus: number and brightness analysis (fluorescence fluctuation spectroscopy); live MORC2 knockout HEK293T cells with low expression of MORC2-meGFP, nucleus, 37 degrees; without or with 0.5 µg/mL neocarzinostatin for 1 hour.
Series [3] concerns the molecule itself. The series can be described thus: atomic force microscopy; dry AFM, 10 nM MORC2 in 40 mM Tris pH 7.5, 50 mM NaCl, 1 mM MgCl2, 0.5 mM TCEP, with 1 mM ATP, with 1 mM AMP-PNP or without ATP, on poly-O-lysine treated mica; particle volumes fitted with two gaussians.
The target of series [4] is T1, MORC2 WT (Homo sapiens, UniProt Q9Y6X9 1-1032).
T1 sequence: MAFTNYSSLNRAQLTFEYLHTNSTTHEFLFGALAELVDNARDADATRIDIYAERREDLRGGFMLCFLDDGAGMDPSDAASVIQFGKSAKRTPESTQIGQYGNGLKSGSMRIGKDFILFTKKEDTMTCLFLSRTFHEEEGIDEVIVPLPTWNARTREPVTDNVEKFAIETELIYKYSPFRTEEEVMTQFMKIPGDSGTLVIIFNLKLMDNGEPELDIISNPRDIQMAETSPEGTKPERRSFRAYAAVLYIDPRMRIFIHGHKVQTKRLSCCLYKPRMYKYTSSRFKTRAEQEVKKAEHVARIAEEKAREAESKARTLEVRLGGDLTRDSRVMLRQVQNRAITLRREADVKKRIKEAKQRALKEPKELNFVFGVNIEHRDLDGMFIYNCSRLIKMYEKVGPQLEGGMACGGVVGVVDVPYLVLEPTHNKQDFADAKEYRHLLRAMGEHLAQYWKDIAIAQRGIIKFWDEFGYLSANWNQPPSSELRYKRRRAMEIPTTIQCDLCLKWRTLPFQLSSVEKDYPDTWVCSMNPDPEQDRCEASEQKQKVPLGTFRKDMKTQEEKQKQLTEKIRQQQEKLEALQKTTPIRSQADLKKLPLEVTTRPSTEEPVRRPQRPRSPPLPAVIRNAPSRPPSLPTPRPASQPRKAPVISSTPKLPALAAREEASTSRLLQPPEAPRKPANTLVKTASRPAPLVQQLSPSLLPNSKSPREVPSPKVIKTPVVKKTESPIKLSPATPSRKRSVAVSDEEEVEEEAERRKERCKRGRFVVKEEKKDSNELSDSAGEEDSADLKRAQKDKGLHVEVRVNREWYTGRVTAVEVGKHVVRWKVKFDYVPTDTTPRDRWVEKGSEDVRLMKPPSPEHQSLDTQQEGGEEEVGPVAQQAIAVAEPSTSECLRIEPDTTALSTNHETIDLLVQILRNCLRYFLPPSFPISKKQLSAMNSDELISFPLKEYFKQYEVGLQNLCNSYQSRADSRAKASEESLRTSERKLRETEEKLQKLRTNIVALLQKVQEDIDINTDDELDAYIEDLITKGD
Briefly: competition; pre-bound; 90 bp competitor still taken up; EMSA: 20 mM Tris pH 7.4, 75 mM NaCl, 5% glycerol, 0.005% NP-40, 0.5 mM MgCl2, RT 30 min; SPR: 10 mM HEPES pH 7.4, 300 mM NaCl, 3 mM EDTA, 0.05% Tween-20, 20 C. The following applies: protein: recombinant; tags: C-terminal 3C site-twin StrepII; chain copies: 2; linear. In general terms: A gel shift assay detects complexes by their altered migration in electrophoresis.

In another series the target is T2, MORC2 dephosphorylated (Homo sapiens, UniProt Q9Y6X9 1-1032).
T2 sequence: T1 sequence
Briefly: SPR; lambda-PPase treated; EMSA: 20 mM Tris pH 7.4, 75 mM NaCl, 5% glycerol, 0.005% NP-40, 0.5 mM MgCl2, RT 30 min; SPR: 10 mM HEPES pH 7.4, 300 mM NaCl, 3 mM EDTA, 0.05% Tween-20, 20 C. The following applies: protein: recombinant; tags: C-terminal 3C site-twin StrepII; chain copies: 2; label: 5'-biotin on strand 1; blunt. Background: Surface plasmon resonance follows binding to a sensor surface in real time, without labels.

In series [5] the target is T1, MORC2 WT. The series can be described thus: SPR; EMSA: 20 mM Tris pH 7.4, 75 mM NaCl, 5% glycerol, 0.005% NP-40, 0.5 mM MgCl2, RT 30 min; SPR: 10 mM HEPES pH 7.4, 300 mM NaCl, 3 mM EDTA, 0.05% Tween-20, 20 C. The note with it: protein: recombinant; tags: C-terminal 3C site-twin StrepII; chain copies: 2; label: 5'-biotin on strand 1; blunt.
The next series addresses T3, MORC2 CC3 (Homo sapiens, UniProt Q9Y6X9 738-776).
T3 chain: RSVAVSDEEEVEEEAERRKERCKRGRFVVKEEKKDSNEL
Briefly: EMSA; DNA length inferred; EMSA: 20 mM Tris pH 7.4, 75 mM NaCl, 5% glycerol, 0.005% NP-40, 0.5 mM MgCl2, RT 30 min; SPR: 10 mM HEPES pH 7.4, 300 mM NaCl, 3 mM EDTA, 0.05% Tween-20, 20 C. The following applies: protein: recombinant; tags: C-terminal 3C site-twin StrepII; label: 5' 6FAM, IRDye680 or IRDye800 on XOm1; blunt.

Another series deals with T4, MORC2 CC2 (Homo sapiens, UniProt Q9Y6X9 544-587).
T4 chain: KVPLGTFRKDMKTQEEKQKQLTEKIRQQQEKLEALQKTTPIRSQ
The description is as above. The note with it: protein: recombinant; tags: C-terminal 3C site-twin StrepII; label: 5' 6FAM, IRDye680 or IRDye800 on XOm1; blunt.

A further series deals with T5, MORC2 CW (Homo sapiens, UniProt Q9Y6X9 496-603).
T5 sequence: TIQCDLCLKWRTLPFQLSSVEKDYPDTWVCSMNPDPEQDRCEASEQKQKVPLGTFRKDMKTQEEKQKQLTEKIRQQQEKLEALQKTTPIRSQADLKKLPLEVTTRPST
Briefly: EMSA; negligible binding; EMSA: 20 mM Tris pH 7.4, 75 mM NaCl, 5% glycerol, 0.005% NP-40, 0.5 mM MgCl2, RT 30 min; SPR: 10 mM HEPES pH 7.4, 300 mM NaCl, 3 mM EDTA, 0.05% Tween-20, 20 C. The note with it: protein: recombinant; tags: C-terminal 3C site-twin StrepII; label: 5' 6FAM, IRDye680 or IRDye800 on XOm1; blunt.

In the next series the target is T6, MORC2 GHKL+CC1 (Homo sapiens, UniProt Q9Y6X9 1-495).
T6 sequence: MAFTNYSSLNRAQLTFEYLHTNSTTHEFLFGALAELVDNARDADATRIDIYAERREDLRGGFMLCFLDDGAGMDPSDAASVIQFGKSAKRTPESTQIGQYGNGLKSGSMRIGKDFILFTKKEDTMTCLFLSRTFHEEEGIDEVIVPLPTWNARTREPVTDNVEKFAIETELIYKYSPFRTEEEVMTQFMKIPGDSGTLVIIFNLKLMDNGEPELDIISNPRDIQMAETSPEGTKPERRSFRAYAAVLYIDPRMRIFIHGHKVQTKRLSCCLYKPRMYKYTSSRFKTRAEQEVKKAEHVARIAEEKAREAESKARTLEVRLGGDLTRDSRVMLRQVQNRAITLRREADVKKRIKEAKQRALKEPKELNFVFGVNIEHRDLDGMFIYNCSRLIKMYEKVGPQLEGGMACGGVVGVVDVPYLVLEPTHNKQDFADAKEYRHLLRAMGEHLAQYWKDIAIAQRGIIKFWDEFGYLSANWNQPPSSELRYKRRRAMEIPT
Described as above. The note with it: protein: recombinant; tags: C-terminal 3C site-twin StrepII; label: 5' 6FAM, IRDye680 or IRDye800 on XOm1; blunt.

Numbering of substitutions follows the chain as printed. In names and notes the source's numbering stands.

B1: full-length MORC2 (MORC2^WT) (natural protein, human, UniProt Q9Y6X9 1-1032, looked up)
chain: T1 sequence
modifications: came phosphorylated from insect cells at multiple sites; top 6 hits S725, S730, S739, S743, S777, S779
notes: MORC2, human, UniProt Q9Y6X9, full length (1-1032); No cleavage of the tag is described; the SPR and single-molecule methods speak of StrepII-tagged MORC2; also called MORC2 WT (1-1032); MORC2^Apo; source: Sf9 insect cells, purified (Strep-Tactin, HiTrap Q, Superose 6 SEC)
B1: in [1], the “stoichiometry N” value was determined as 2.

B2: monomeric eGFP (meGFP)-tagged MORC2 (natural protein, human, UniProt Q9Y6X9 1-1032, looked up)
chain: T1 sequence
notes: MORC2, human, UniProt Q9Y6X9; Probably the full-length cDNA; also called MORC2-meGFP; pBacMam-MORC2-meGFP-StrepII; source: expressed in MORC2 knockout HEK293T cells, in live cells
B2: the “fold increase of dimers upon neocarzinostatin” value in series [2] was ~2 fold.

B3: ATP-binding-deficient mutant MORC2 N39A (MORC2^N39A) (natural protein, human, UniProt Q9Y6X9 1-1032, looked up)
chain: T1 sequence with N39A
notes: MORC2, human, UniProt Q9Y6X9, full length with N39A; also called N39A mutant; source: Sf9 insect cells, purified (Strep-Tactin, HiTrap Q, Superose 6 SEC)
On to B3, for which, in series [3], the binding result is recorded as “binds”.

B4: 101 bp linear dsDNA (dsDNA)
DNA 1: CGGTCGTTTAGCATACTAATCTGAGAGTCCGACGGTCGTCAGTCAGTCATGACTTCACAGAGGAAGGGCCAGTATCCTGTCCAAACTTGATGCTCGAATTC
DNA 2: GAATTCGAGCATCAAGTTTGGACAGGATACTGGCCCTTCCTCTGTGAAGTCATGACTGACTGACGACCGTCGGACTCTCAGATTAGTATGCTAAACGACCG
In the case of B4, the binding result in the series with MORC2 WT [4] was “binds”.

B5: 60 bp dsDNA (biotin, SPR) (dsDNA)
DNA 1: ACGCTGCCGAATTCTACCAGTGCCTTGCTAGGACATCTTTGCCCACCTGCAGGTTCACCC
DNA 2: GGGTGAACCTGCAGGTGGGCAAAGATGTCCTAGCAAGGCACTGGTAGAATTCGGCAGCGT
For B5, the Kd with MORC2 dephosphorylated was found to be 15.3 ± 9.1 nM; in the series with MORC2 WT [5] it was 26.3 ± 11.4 nM.

B6: 60 bp dsDNA (XOm1/XOm1.comp) (dsDNA)
DNA 1: B5 DNA 1
DNA 2: B5 DNA 2
Consider B6, for which the binding result in the series with MORC2 CC3 is on record as “no binding”; with MORC2 CC2, “binds”; with MORC2 CW, “no binding”; with MORC2 GHKL+CC1 it was “no binding”.

The term stoichiometry N denotes a count of units in the complex or per binding partner. Usually Kd stands for a measure of binding affinity in units of concentration.
